Reference: US20220017632A1 (HANX BIOPHARMACEUTICS, published 2022)

T1: human fusion protein hOX40-HIS (human, UniProt P43489 29-216, limits assumed)
T1 construct: it looks like the extracellular region; also called hOX40-HIS antigen; human OX40 antigen
T1 sequence: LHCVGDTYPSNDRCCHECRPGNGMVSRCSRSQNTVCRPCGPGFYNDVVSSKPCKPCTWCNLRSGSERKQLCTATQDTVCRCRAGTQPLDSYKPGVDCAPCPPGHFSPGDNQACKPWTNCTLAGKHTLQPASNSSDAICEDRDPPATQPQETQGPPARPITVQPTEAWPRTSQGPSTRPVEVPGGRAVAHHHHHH

T2: murine OX40 antigen (murine, UniProt P47741 20-211, limits assumed)
T2 sequence (looked up): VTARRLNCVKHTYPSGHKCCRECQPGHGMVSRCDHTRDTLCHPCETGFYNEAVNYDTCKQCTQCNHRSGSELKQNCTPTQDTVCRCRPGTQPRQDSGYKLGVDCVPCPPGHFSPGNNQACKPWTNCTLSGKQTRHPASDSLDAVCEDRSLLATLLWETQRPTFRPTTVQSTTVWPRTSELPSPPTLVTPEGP

T3: hOX40 protein on the cell membrane surface (293T-OX40 stably transfected cells) (human, UniProt P43489 29-277)
T3 construct: whole, on cells; also called hOX40 on the surface of the cell membrane; 293T cells expressing hOX40
T3 sequence (looked up): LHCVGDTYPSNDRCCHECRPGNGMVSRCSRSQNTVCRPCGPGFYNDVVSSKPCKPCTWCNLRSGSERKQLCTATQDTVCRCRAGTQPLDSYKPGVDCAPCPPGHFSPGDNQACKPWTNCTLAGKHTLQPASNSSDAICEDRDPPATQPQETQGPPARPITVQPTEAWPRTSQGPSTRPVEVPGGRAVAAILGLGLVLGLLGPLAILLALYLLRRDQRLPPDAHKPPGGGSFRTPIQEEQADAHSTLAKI

B1: antibody 9C12 (antibody, V domains shown)
VH: QVQLQQSGGGLVKPGGSLKLSCAASGFTFSDYYMYWVRQTPEKRLEWVATISDGGSNTYYPDSVKGRFTISRDNAKNNLYLQMSSLKSEDTATYYCARRGTGTGFGYWGQGTLVTVSA
VL: DIVLTQTTASLSVSVGETVTITCRASENIYSTLAWYQQKQGKSPQLLVYAATNLVAGVPSRFSGSGSGTQYSLKINSLQSEDFGSYYCQHFWGIPWTFGGGTKLEIK
notes: Purified mouse hybridoma antibody; also called 9C12 antibody; 9C12 Ab
B2: antibody 8A7 (antibody, V domains shown)
VH: QVQLQESGPSHVKPSQTLSLTCSVTGDSITSGYWNWIRKFPGNKLEYLGYISFSGNTYYNPSLKSRISIIRDTSKNQYYLQLNSVTTEDTATYYCARYPYSYSNWDYAMDYWGQGTSVTVSS
VL: DIVMTQSPSSLVVSVGEKVTMSCKSSQFLLYSSSQKNYLAWYQQKPGQSPQLLIYWASTRESGVPDRFTGSGSGTDFTLTISSVKAEDLAVYYCHQYYSYPLTFGAGTKLELK
notes: Purified mouse hybridoma antibody; also called 8A7 antibody; 8A7 Ab
B3: antibody 1D9 (antibody, V domains shown)
VH: EVQLQQSGPELVKPGALVKISCKASGYTFTNYDINWVKQRPGQGLEWIGWIYPEDGSTKYNEKFKGKATLTADKSSSTAYMQLSSLTSENSAVYFCARDTRGYFDYWGQGTTLTVSS
VL: DIVMTQTTAIMSASLGEKVTMSCRASSSVNYIYWYQQKSDASPKLWIYYTSNLAPGVPARFSGSGSGNSYSLTISSMEGEDAATYYCQQFTSSPWTFGGGTKLEFKR
notes: Purified mouse hybridoma antibody; also called 1D9 antibody; 1D9 Ab

How the values were obtained:
[1] = molecular target: T1, human fusion protein hOX40-HIS; test: ELISA, coated hOX40-HIS; antibody 2000 ng/ml; well 2
Description: (§1) For the hybridoma antibodies prepared in Example 1, the specific binding of different antibodies to hOX40 was detected by the following steps:
(§2) 3) addition of the primary antibody: preparing the four antibodies to a concentration of 2 μg/ml, and diluting 1:5 from the 2 μg/ml as the starting concentration to 7 gradient concentrations (that is, the concentrations of 2μg/ml, 400 ng/ml, 80 ng/ml, 16 ng/ml, 3.2 ng/ml, 0.64 ng/ml, 0.128 ng/ml, respectively). The prepared primary antibodies were added individually, and incubated at 30° C. for 1 hour; PBS was used as the blank control group;

[2] = molecular target: T1, human fusion protein hOX40-HIS; test: ELISA, coated hOX40-HIS; antibody 0.64 ng/ml; well 1
Description: as §1, §2

[3] = molecular target: T1, human fusion protein hOX40-HIS; test: ELISA, coated hOX40-HIS; antibody 0.64 ng/ml; well 2
Description: as §1, §2

[4] = molecular target: T1, human fusion protein hOX40-HIS; test: ELISA, coated hOX40-HIS; antibody 0.128 ng/ml; well 1
Description: as §1, §2

[5] = molecular target: T1, human fusion protein hOX40-HIS; test: ELISA, coated hOX40-HIS; antibody 400 ng/ml; well 1
Description: as §1, §2

monkey OX40 antigen = molecular target: T4, monkey OX40 antigen (monkey); test: ELISA, coated monkey OX40-HIS 0.25 ug/ml
T4 construct: also called Monkey OX40-HIS antigen
Description: (§3) Human OX40 antigen, monkey OX40 antigen and murine OX40 antigen were used for coating respectively to detect whether OX40 antibody cross-reacts with OX40 protein of different species, through the following steps:
(§4) 3) addition of the primary antibody: preparing antibody 9C12 to a concentration of 2 μg/ml, and diluting 1:5 from the 2 μg/ml as the starting concentration to […] 7 gradient concentrations (that is, the concentrations of 2 μg/ml, 400 ng/ml, 80 ng/ml, 16 ng/ml, 3.2 ng/ml, 0.64 ng/ml, 0.128 ng/ml, respectively). PBS was used as the blank control group. The prepared primary antibodies were added individually, and incubated at 30° C. for 1 hour;

[6] = molecular target: T1, human fusion protein hOX40-HIS; test: ELISA, coated hOX40-HIS; antibody 2000 ng/ml; well 1
Description: as §1, §2

[7] = molecular target: T1, human fusion protein hOX40-HIS; test: ELISA, coated hOX40-HIS 0.6 ug/ml
Description: as §2
The ELISA test results are shown in Table 1, in which, the EC₅₀ value represents the half-maximal effect concentration, that is, the concentration that can cause 50% of the maximum effect.

[8] = molecular target: T1, human fusion protein hOX40-HIS; test: ELISA, coated hOX40-HIS; antibody 16 ng/ml; well 1
Description: as §1, §2

[9] = molecular target: T1, human fusion protein hOX40-HIS; test: ELISA, coated hOX40-HIS; antibody 0.128 ng/ml; well 2
Description: as §1, §2

[10] = molecular target: T1, human fusion protein hOX40-HIS; test: ELISA, coated hOX40-HIS; antibody 16 ng/ml; well 2
Description: as §1, §2

[11] = molecular target: T1, human fusion protein hOX40-HIS; test: ELISA, coated hOX40-HIS; antibody 3.2 ng/ml; well 2
Description: as §1, §2

[12] = molecular target: T1, human fusion protein hOX40-HIS; test: ELISA, coated hOX40-HIS; antibody 3.2 ng/ml; well 1
Description: as §1, §2

[13] = molecular target: T1, human fusion protein hOX40-HIS; test: ELISA, coated human OX40-HIS 0.25 ug/ml
Description: as §3, §4

[14] = molecular target: T1, human fusion protein hOX40-HIS; test: SPR, ProteOn XPR, hOX40-HIS immobilized on GLM chip, antibody as analyte
Description: The ProteOn XPR molecular interaction instrument may be used to detect the kinetics and affinity constants of the interaction between different drugs and a variety of different target proteins. 250 nM hOX40-HIS antigen ([…] hOX40 antigen) was immobilized on the surface of the GLM chip, and after equilibrating in PBST, was allowed to bind to the antibody 9C12 diluted twice in PBST to the concentration of 50, 25, 12.5, 6.25, 3.125, 0 nM, respectively, and then dissociated in PBST.

murine OX40 antigen = molecular target: T2, murine OX40 antigen; test: ELISA, coated murine OX40 antigen 0.25 ug/ml
Description: as §3, §4

[15] = molecular target: T3, hOX40 protein on the cell membrane …; test: flow cytometry on 293T-OX40 cells
Description: In this experiment, 293T-OX40 stably transfected cell lines were used as the experimental cells, and the FACS method was used to detect the binding of 9C12 to the hOX40 protein on the cell membrane surface. The specific procedure is as follows:
293T cells expressing hOX40 were digested, and prepared to a final concentration of 10⁶ cells/ml. 100 μl of cell suspension from each group was added into a 1.5 ml EP tube. Various concentrations of 9C12 antibody (10000 ng/ml, 4000 ng/ml, 2000 ng/ml, 1000 ng/ml, 500 ng/ml, 200 ng/ml, 20 ng/ml, 2 ng/ml) were added, and incubated on ice for 1 hour. After 1 hour, the tube was washed with HBSS once. Each group was added with prepared APC goat anti-human IgG secondary antibody, incubated on ice for 20 minutes in the dark, washed once with HBSS, and finally suspended with 200 μl of HBSS, and the cells were tested.

[16] = molecular target: T1, human fusion protein hOX40-HIS; test: ELISA, coated hOX40-HIS; antibody 400 ng/ml; well 2
Description: as §1, §2

[17] = molecular target: T1, human fusion protein hOX40-HIS; test: ELISA, coated hOX40-HIS; antibody 80 ng/ml; well 2
Description: as §1, §2

[18] = molecular target: T1, human fusion protein hOX40-HIS; test: ELISA, coated hOX40-HIS; antibody 80 ng/ml; well 1
Description: as §1, §2

Row | Binder | absorbance at 450 nm [1] | absorbance at 450 nm [2] | absorbance at 450 nm [3] | absorbance at 450 nm [4] | absorbance at 450 nm [5] | absorbance at 450 nm [6] | EC50 [7] | absorbance at 450 nm [8] | absorbance at 450 nm [9] | absorbance at 450 nm [10] | absorbance at 450 nm [11] | absorbance at 450 nm [12] | Kd [14] | koff [14] | kon [14] | absorbance at 450 nm [16] | absorbance at 450 nm [17] | absorbance at 450 nm [18] | other results
1 | B1 | 2.68 | 0.464 | 0.464 | 0.147 | 2.59 | 2.72 | 0.017 nM | 2.4 | 0.138 | 2.25 | 1.51 | 1.58 | 0.151 nM | 6.73e-05 s⁻¹ | 445000 M⁻¹ s⁻¹ | 2.52 | 2.51 | 2.59 | EC50 (monkey OX40 antigen): 0.01 nM; EC50 [13]: 0.012 nM; binding result (murine OX40 antigen): no binding (tested: 2000 ng/ml); EC50 [15]: 2.84 nM
2 | B2 | 1.98 | 0.059 | 0.058 | 0.05 | 1.64 | 1.93 | 0.727 nM | 0.272 | 0.056 | 0.288 | 0.094 | 0.096 | 20.8 nM | 0.000567 s⁻¹ | 27300 M⁻¹ s⁻¹ | 1.66 | 0.87 | 0.894 | –
3 | B3 | 3.08 | 0.051 | 0.053 | 0.053 | 1.11 | 2.95 | 10.8 nM | 0.104 | 0.052 | 0.123 | 0.066 | 0.061 | – | – | – | 1.12 | 0.287 | 0.316 | –
